US20150353923, “Method for Identifying RNA Segments Bound by RNA-Binding Proteins or Ribonucleoprotein Complexes” (Rockefeller University, published 2015)

T1: QKI (Quaking) (UniProt Q96PU8-9 Q96PU8-9:1-319)
T1 sequence: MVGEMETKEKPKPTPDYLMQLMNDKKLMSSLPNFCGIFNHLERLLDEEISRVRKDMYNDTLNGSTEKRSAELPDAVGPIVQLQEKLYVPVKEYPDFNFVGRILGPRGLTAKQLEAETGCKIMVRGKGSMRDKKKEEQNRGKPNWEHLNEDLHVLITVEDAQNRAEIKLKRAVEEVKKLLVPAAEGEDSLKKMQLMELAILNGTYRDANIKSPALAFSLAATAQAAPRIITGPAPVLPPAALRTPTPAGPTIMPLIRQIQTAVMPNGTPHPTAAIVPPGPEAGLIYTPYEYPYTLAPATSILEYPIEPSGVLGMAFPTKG

B1: QKI oligo 4SU at U2 (ssRNA)
RNA: GUAUGCCAUUAACAAAUUCAUUAACAA
modifications: 4-thiouridine at position 2
B2: QKI oligo 4SU at U10 (ssRNA)
RNA: GUAUGCCAUUAACAAAUUCAUUAACAA
modifications: 4-thiouridine at position 10 (position 3 of recognition element)
B3: QKI oligo 4SU at U4 (ssRNA)
RNA: GUAUGCCAUUAACAAAUUCAUUAACAA
modifications: 4-thiouridine at position 4
B4: HOXD13 3'UTR QKI-site oligoribonucleotide (ssRNA)
RNA: GUAUGCCAUUAACAAAUUCAUUAACAA

Experiments:
Conditions in all cases: tags: N-terminal His6 (pDEST17, E. coli); label: 32P
QKI (Quaking) [1] = target: T1, QKI (Quaking); experiment: EMSA; 4SU position has no significant effect on affinity; 330 mM KCl, 10 mM MgCl2, tRNA
Protocol: (§1) Radiolabeled RNA (1 nM) was incubated with recombinant His6-QKI protein at various concentrations and 100 ng tRNA in 20 μl of 20 mM HEPES-KOH, pH 7.4, 330 mM KCl, 10 mM MgCl2, 0.1 mM EDTA and 0.01% IGEPAL CA630 (Sigma). After addition of 6 μl loading dye (40% glycerol, bromophenol blue in binding buffer), the solution was loaded onto a native 10% acrylamide gel containing 0.5×TBE, running at 200 V for 2 h at room temperature, using 0.5×TBE as running buffer. The protein-bound RNA and the free RNA were quantified using a phosphorimager.

QKI (Quaking) [2] = target: T1, QKI (Quaking); experiment: EMSA; binding unaffected by 4SU; 330 mM KCl, 10 mM MgCl2, tRNA
Protocol: as §1

QKI (Quaking) [3] = target: T1, QKI (Quaking); experiment: EMSA; 330 mM KCl, 10 mM MgCl2, pH 7.4, 100 ng tRNA
Protocol: as §1

Row | Binder | binding result (QKI (Quaking) [1]) | also measured
1 | B1 | binds | –
2 | B2 | – | binding result (QKI (Quaking) [2]): binds
3 | B3 | binds | –
4 | B4 | – | binding result (QKI (Quaking) [3]): binds
